Laboratory results from patent US20240228562A1, “NOVEL LIPOCALIN MUTEINS SPECIFIC FOR CONNECTIVE TISSUE GROWTH FACTOR (CTGF)” (PIERIS PHARMACEUTICALS GMBH, priority 2021, published 2024).
Positions count from the first letter of the chain named.

T1: Murine CTGF (Mus musculus, UniProt P29268)
T1 construct: purchased Abbexa
T1 sequence (P29268 26-348): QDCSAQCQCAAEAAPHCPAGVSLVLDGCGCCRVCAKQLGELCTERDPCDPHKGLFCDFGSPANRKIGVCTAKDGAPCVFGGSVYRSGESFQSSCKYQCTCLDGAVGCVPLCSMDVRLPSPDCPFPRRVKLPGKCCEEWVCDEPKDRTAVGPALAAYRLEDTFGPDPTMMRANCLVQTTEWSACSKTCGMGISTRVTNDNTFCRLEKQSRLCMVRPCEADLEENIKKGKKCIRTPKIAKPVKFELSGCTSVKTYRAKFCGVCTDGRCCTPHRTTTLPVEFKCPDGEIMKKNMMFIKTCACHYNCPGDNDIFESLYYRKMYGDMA

B1: SEQ ID NO: 8: optimized CTGF-binding hNGAL lipocalin mutein (protein)
chain: QDSTSDLIPAPPLSKVPLQQNFQDNQFQGKWYVVGLAGNYGLRTDKRPSKMFATIYELKEDKSYDVTSVRFEQERCHYTIRTFVPGSQPGEFTSGNIGNYPGSYSTLVRVVSTNYNQHAMVFFKSVIQNREYFAITLYGRTKELTSELKENFIRFSKSLGLPENHIVFPVPIDQCIDG
modifications: lipocalin mutein
B2: SEQ ID NO: 14: optimized CTGF-binding hNGAL lipocalin mutein (protein)
chain: QDSTSDLIPAPPLSKVPLQQNFQDNQFQGKWYVVGLAGNAILREDKYPAKMFATIYELKEDKSYDVTSVRFEAKSCIYTIKTFVPGSQPGEFTRGNIKSAPGQTSTLVRVVSTNYNQHAMVFFKHVSQNREIFVITLYGRTKELTSELKENFIRFSKSLGLPENHIVFPVPIDQCIDG
modifications: lipocalin mutein
B3: SEQ ID NO: 19: optimized CTGF-binding hNGAL lipocalin mutein (protein)
chain: B2 chain with Y47Q, I77S, R94A, F123H, H125A, I132S
modifications: lipocalin mutein
B4: SEQ ID NO: 21: optimized CTGF-binding hNGAL lipocalin mutein (protein)
chain: B2 chain with Y47Q, I77S, R94A, H125A, S127R, Q128G, N129A, I132S, V134N, T136A
modifications: lipocalin mutein
B5: SEQ ID NO: 16: optimized CTGF-binding hNGAL lipocalin mutein (protein)
chain: B2 chain with E44T, Y47Q, I77V, R94A, I132F
modifications: lipocalin mutein
B6: SEQ ID NO: 17: optimized CTGF-binding hNGAL lipocalin mutein (protein)
chain: B2 chain with E44T, Y47Q, I77V, I80S, R94A, I132F
modifications: lipocalin mutein
B7: SEQ ID NO: 18: optimized CTGF-binding hNGAL lipocalin mutein (protein)
chain: B2 chain with L36I, E44D, A73N, R94H, A100H
modifications: lipocalin mutein
B8: SEQ ID NO: 13: optimized CTGF-binding hNGAL lipocalin mutein (protein)
chain: B2 chain with A73N, I77V, I80S, R94T, I132F
modifications: lipocalin mutein
B9: SEQ ID NO: 20: optimized CTGF-binding hNGAL lipocalin mutein (protein)
chain: B2 chain with Y47Q, I77S, R94A, F123A, H125A, S127Q, Q128L, I132H, V134F
modifications: lipocalin mutein
B10: SEQ ID NO: 12: optimized CTGF-binding hNGAL lipocalin mutein (protein)
chain: B2 chain with A73N, I77V, R94T, I132F
modifications: lipocalin mutein
B11: SEQ ID NO: 11: optimized CTGF-binding hNGAL lipocalin mutein (protein)
chain: B2 chain with Y47Q, I77S, I80S, R94A, I132T
modifications: lipocalin mutein
B12: SEQ ID NO: 26: optimized CTGF-binding hNGAL lipocalin mutein (protein)
chain: QDSTSDLIPAPPLSKVPLQQNFQDNQFQGKWYVVGLAGNYRLREDKDPSKMGATIYELKEDKSYDVTQVQFDDKKCLYVIETFVPGSQPGEFTLGNIKVYPTLESQLVRVVSTNYNQHAMVFFKKVYQNREVFWITLYGRTKELTSELKENFIRFSKSLGLPENHIVFPVPIDQCIDG
modifications: lipocalin mutein
B13: SEQ ID NO: 27: optimized CTGF-binding hNGAL lipocalin mutein (protein)
chain: B12 chain with N96A, V99S, T102G, E104T, F123L, Q128G, N129S, R130E, V132Y, W134H
modifications: lipocalin mutein
B14: SEQ ID NO: 28: optimized CTGF-binding hNGAL lipocalin mutein (protein)
chain: QDSTSDLIPAPPLSKVPLQQNFQDNQFQGKWYVVGLAGNYRLREDKDPSKMGATIYELKEDKSYDVTQVQFDDKKCLYVIETFVPGSQPGEFTLGAIKSYPGLTSQLVRVVSTNYNQHAMVFVKKVWPNLEYFQIVLYGRTKELTSELKENFIRFSKSLGLPENHIVFPVPIDQCIDG
modifications: lipocalin mutein

biological target: T1, Murine CTGF; experiment: SPR binding kinetics and affinity, murine CTGF; set-up: key to Murine CTGF kon / Murine CTGF koff / Murine CTGF KD: B binding without determination of kinetics constants; conditions: 25° C., 1:1 binding model
Procedure: (§1) Surface plasmon resonance (SPR) was used to measure binding kinetics and affinity of the representative lipocalin muteins disclosed herein.
(§2) The binding of exemplary lipocalin muteins to human (Creative Biomart), cynomolgus, rat (R&D Systems) and mouse CTGF (Abbexa) was determined by SPR using a Biacore instrument (Cytiva, formerly GE Healthcare). Some targets were fused to a human IgG1 Fc tag, and captured via the anti-human IgG antibody kit, others were directly immobilized.
(§3) For some measurements, human CTGF with a human IgG1 Fc Tag or rat or murine CTGF without a tag were directly immobilized to a CM5 Chip. The carboxyl groups on the chip were activated using 1-ethyl-3-(3-dimethylaminopropyl)-carbodiimide (EDC) and N-hydroxysuccinimide (NHS). Subsequently, the targets at a concentration of 3-5 μg/mL in 10 mM sodium acetate (pH) 4.5 were applied at a flow rate of 10 μL/min until an immobilization level of 300-1100 resonance units was achieved. Residual non-reacted NHS-esters were blocked by passing a solution of 1 M ethanolamine across the surface. The reference channel was activated/deactivated. For the capture setting, targets with an IgG Fc Tag at 0.25-2.5 μg/mL in HBS-EP+ buffer were captured by the anti-human IgG-Fc antibody at the chip surface for 180 s at a flow rate of 10 μL/min.
(§4) The binding assay was carried out with a contact time of 180 s, a dissociation time of 900-3600 s and a flow rate of 30 μL/min. All measurements were performed at 25° C. […] For the directly immobilized targets, the same regeneration conditions were used. Prior to the protein measurements, three startup cycles were performed for conditioning purposes. Data were evaluated with Biacore Evaluation software. Double referencing was used and the 1:1 binding model was used to fit the raw data.
The values determined for kon, koff and the resulting equilibrium dissociation constant (KD) for exemplary lipocalin muteins are summarized in Table 4.

Murine CTGF koff	Murine CTGF kon	Murine CTGF KD	Molecule
0.000131 s⁻¹	72000 M⁻¹ s⁻¹		B1
7.03e-05 s⁻¹	190000 M⁻¹ s⁻¹		B2
2.54e-05 s⁻¹	93200 M⁻¹ s⁻¹		B3
3.94e-05 s⁻¹	228000 M⁻¹ s⁻¹		B4
6.34e-05 s⁻¹	161000 M⁻¹ s⁻¹		B5
B	B	B	B6
B	B	B	B7
B	B	B	B8
B	B	B	B9
0.000128 s⁻¹	91400 M⁻¹ s⁻¹		B10
8.19e-05 s⁻¹	80100 M⁻¹ s⁻¹		B11
0.000208 s⁻¹	35300 M⁻¹ s⁻¹		B12
0.000172 s⁻¹	41400 M⁻¹ s⁻¹		B13
8.23e-05 s⁻¹	60700 M⁻¹ s⁻¹		B14

tested on: not listed separately; experiment: Thermal stability assessment by nanoDSC; assay type: physicochemical; conditions: 1 mg/mL in PBS, scan 25-100° C. at 1° C./min
Procedure: To determine the melting temperatures (Tms) of the lipocalin muteins, which is a general indicator for folding stability, the CTGF specific muteins, at a protein concentration of 1 mg/mL in PBS (Gibco), were scanned (25-100° C.) at 1° C./min using a capillary nanoDSC instrument (CSC 6300, TA Instruments). […] Several unfolding events can contribute to the observed thermogram. In cases with multiple transitions, the one with the major unfolding energy best represents the overall protein fold and is reported. Muteins were produced as described in Example 3. SEQ ID NOs: 3, 7, 9, 25, and 29 were expressed using E. coli, the other muteins were expressed using CHO cells.
The resulting maximum melting temperatures as well as the onset temperature of melting for exemplary lipocalin muteins and fusion proteins are listed in Table 3 below.

Molecule	ONSET MELTING
B1	49 °C
B2	57 °C
B3	49 °C
B4	55 °C
B5	59 °C
B6	59 °C
B9	46 °C
B12	62 °C
B13	52 °C
B14	55 °C

same assay, conditions: 1 mg/mL in PBS, scan 25-100° C. at 1° C./min, major transition

Molecule	TM
B1	75 °C
B2	68 °C
B3	65 °C
B4	65 °C
B5	73 °C
B6	74 °C
B9	61 °C
B12	71 °C
B13	64 °C
B14	65 °C

biological target: T2, human CTGF (Homo sapiens, UniProt P29279); experiment: SPR binding kinetics and affinity, human CTGF; set-up: key to human CTGF kon / human CTGF koff / human CTGF KD: B binding without determination of kinetics constants; conditions: 25° C., 1:1 binding model
T2 construct: purchased Creative Biomart
Procedure: as §1, §2, §3, §4

T2 sequence (P29279 with tags, fused parts or gaps H83D): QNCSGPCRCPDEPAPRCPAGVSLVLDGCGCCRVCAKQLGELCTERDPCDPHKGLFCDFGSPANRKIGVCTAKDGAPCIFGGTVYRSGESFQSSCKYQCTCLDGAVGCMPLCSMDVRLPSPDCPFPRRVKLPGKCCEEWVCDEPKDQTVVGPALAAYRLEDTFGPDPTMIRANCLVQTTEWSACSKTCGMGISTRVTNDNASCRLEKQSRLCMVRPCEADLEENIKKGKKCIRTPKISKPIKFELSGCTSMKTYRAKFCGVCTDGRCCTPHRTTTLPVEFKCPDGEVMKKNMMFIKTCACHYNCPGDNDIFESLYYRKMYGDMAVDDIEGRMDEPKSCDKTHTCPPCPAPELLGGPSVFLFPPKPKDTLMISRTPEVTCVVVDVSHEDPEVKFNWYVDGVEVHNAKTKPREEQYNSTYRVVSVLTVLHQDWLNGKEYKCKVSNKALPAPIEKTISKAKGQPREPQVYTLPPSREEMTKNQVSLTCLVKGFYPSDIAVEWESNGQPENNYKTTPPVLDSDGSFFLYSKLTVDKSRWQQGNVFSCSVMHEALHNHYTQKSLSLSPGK

human CTGF koff	Molecule
0.000114 s⁻¹	B1
5.34e-05 s⁻¹	B2
5.2e-05 s⁻¹	B3
6.63e-05 s⁻¹	B4
7.02e-05 s⁻¹	B5
3.05e-06 s⁻¹	B7
2.51e-06 s⁻¹	B8
0.000133 s⁻¹	B10
0.000108 s⁻¹	B11
3.06e-05 s⁻¹	B12
2.45e-05 s⁻¹	B13
2.61e-05 s⁻¹	B14

biological target: T3, human CTGF (Homo sapiens, UniProt P29279, H83D); experiment: SPR binding kinetics and affinity, human CTGF; set-up: key to human CTGF kon / human CTGF koff / human CTGF KD: B binding without determination of kinetics constants; conditions: 25° C., 1:1 binding model
T3 construct: purchased Creative Biomart
Procedure: as §1, §2, §3, §4

T3 sequence (P29279 with tags, fused parts or gaps H83D): as above

human CTGF kon	human CTGF KD	human CTGF koff	Molecule
45400 M⁻¹ s⁻¹			B1
102000 M⁻¹ s⁻¹			B2
56600 M⁻¹ s⁻¹			B3
127000 M⁻¹ s⁻¹			B4
92300 M⁻¹ s⁻¹			B5
B	B	B	B6
40900 M⁻¹ s⁻¹			B7
51000 M⁻¹ s⁻¹			B8
B	B	B	B9
55600 M⁻¹ s⁻¹			B10
44400 M⁻¹ s⁻¹			B11
23200 M⁻¹ s⁻¹			B12
30500 M⁻¹ s⁻¹			B13
50400 M⁻¹ s⁻¹			B14
